In patent US20240059797A1 (GRITSTONE BIO, published 2024):
Positions count from the first letter of the chain named.

Key:
[1] = target: T1, HLA-A*01:01_… (HLA-PEPTIDE target G2), recombinant biotinylated complex (human, enzymatically biotinylated (BirA)); experiment: BLI (ForteBio Octet HTX), biotinylated G2-pHLA captured on streptavidin SAX biosensor, bispecific in solution, 1:1 Fit
T1 construct: also called G2-pHLA
Description: (§1) The biosensors were then dipped in assay buffer for a baseline. […] The biosensors were finally dipped into wells containing assay buffer to measure the dissociation rate for another 50 seconds. Referencing was completed by having a biosensor with no immobilized ligand dipped into analyte. Kinetic data was processed with Octet™ software using a 1:1 kinetic model with errors within 10%, X² below 3, and R² above 0.9.

[2] = target: T1, HLA-A*01:01_… (HLA-PEPTIDE target G2), …; experiment: BLI (ForteBio Octet HTX), biotinylated G2-pHLA captured on streptavidin SAX biosensor, bispecific in solution, 1:2 Fit
[3] = target: T2, HLA-A*01:01_… (G2) presented on cells (human); experiment: flow cytometry, A375 cells expressing the G2 peptide
T2 construct: whole, on cells; K562 transduced with HLA-A*01:01 and pulsed with peptide, or A375 transduced with a 10x peptide cassette; also called G2 on K562 or A375 cells
Protocol: Tumor cells engineered to express target peptide were harvested, washed in PBS, and stained with eBioscience Fixable Viability Dye eFluor 450 for 15 minutes at room temperature. Following another wash in PBS+1-2% FBS, cells were resuspended with the indicated molecules at varying concentrations and incubated for 1 hour at 4° C. After another wash, PE-conjugated goat anti-human IgG secondary antibody (Jackson ImmunoResearch) was added at 1:100 to 1:200 for 30 minutes at 4° C. After washing in PBS+1-2% FBS, cells were resuspended in PBS+1-2% FBS and analyzed by flow cytometry. Flow cytometric analysis was performed on the Attune NxT Flow Cytometer (ThermoFisher) using the Attune NxT Software. Data was analyzed using FlowJo.

[4] = target: T1, HLA-A*01:01_… (HLA-PEPTIDE target G2), …; experiment: BLI (Octet HTX), biotinylated pHLA on SAX sensor, 1:1 model
Protocol: (§2) The affinity of wildtype and DSB mutants were analyzed on the ForteBio Octet HTX in 96-channel mode with biolayer interferometry (BLI) detection. […] The biosensors were then dipped in assay buffer for a baseline. […] The biosensors were finally dipped into wells containing assay buffer to measure the dissociation rate for another 50 seconds. Referencing was completed by having a biosensor with no immobilized ligand dipped into analyte. Kinetic data was processed with Octet™ software using a 1:1 kinetic model with errors within 10%, X² below 3, and R² above 0.9.

[5] = target: T1, HLA-A*01:01_… (HLA-PEPTIDE target G2), …; experiment: BLI (ForteBio Octet HTX), biotinylated G2-pHLA captured on streptavidin SAX biosensor, bispecific in solution, 1:1 kinetic model
Protocol: as §2

[6] = target: T3, HLA-B*35:01_… (G5) presented on cells (human); experiment: flow cytometry on LN229 cells engineered to express the G5 peptide (LN229-G5-9mer), PE anti-human IgG secondary
T3 construct: whole, on cells; also called G5 on K562 or LN229 cells
Protocol: Cells were harvested, washed in PBS, and stained with eBioscience Fixable Viability Dye eFluor 450 for 15 minutes at room temperature. Following another wash in PBS+2% FBS, cells were resuspended with bispecifics at varying concentrations. Cells were incubated with bispecifics for 1 hour at 4° C. After another wash, PE-conjugated goat anti-human IgG secondary antibody (Jackson ImmunoResearch) was added at 1:100. After incubating at 4° C. for 45 minutes and washing in PBS+2% FBS, cells were resuspended in PBS+2% FBS and analyzed by flow cytometry. Flow cytometric analysis was performed on the Attune NxT Flow Cytometer (ThermoFisher) using the Attune NxT Software. Data was analyzed using FlowJo.

[7] = target: T4, HLA-B*35:01_… (HLA-PEPTIDE target G5), recombinant biotinylated complex (human, enzymatically biotinylated (BirA)); experiment: BLI (ForteBio Octet HTX), biotinylated G5-pHLA captured on streptavidin SAX biosensor, bispecific in solution, 1:1 Fit
T4 construct: also called G5-pHLA
Description: as §1

[8] = target: T4, HLA-B*35:01_… (HLA-PEPTIDE target G5), …; experiment: BLI (ForteBio Octet HTX), biotinylated G5-pHLA captured on streptavidin SAX biosensor, bispecific in solution, 1:2 Fit
[9] = target: HLA-A*01:01_… (HLA-PEPTIDE target G10), recombinant biotinylated complex (human, enzymatically biotinylated (BirA)); experiment: BLI, pHLA on sensor, Fab titrated, 1:1 model
Protocol: Binding affinity was assessed by bio-layer interferometry (BLI) using an Octet Qke (ForteBio). Briefly, biotinylated pHLA complexes in kinetics buffer were loaded onto streptavidin sensors for 300 seconds, at concentrations which gave the optimal nm shift response (approximately 0.6 nm) for each Fab at the highest concentration used. The ligand-loaded tips were subsequently equilibrated in the kinetics buffer for 120 seconds. The ligand-loaded biosensors were then dipped for 200 seconds in the Fab solution titrated into 2-fold dilutions. […] The dissociation step in the kinetics buffer was measured for 200 seconds. Data were analyzed using the ForteBio data analysis software using a 1:1 binding model.

[10] = target: HLA-A*02:01_… (HLA-PEPTIDE target G7), recombinant biotinylated complex (human, enzymatically biotinylated (BirA)); experiment: phage panning, scFv ELISA
Protocol: Phage library screening was carried out according to the overall screening design described above. Three to four rounds of bead-based panning were performed to identify scFv binders to each peptide-HLA complex. For each round of panning, an aliquot of starting phage was set aside for input titering and the remaining phage was depleted three times against Dynabead M-280 streptavidin beads (Life Technologies) followed by a depletion against Streptavidin beads pre-bound with 100 μmoles of pooled negative peptide-HLA complexes. For the first round of panning, 100 μmoles of peptide-HLA complex bound to streptavidin beads was incubated with depleted phage for 2 hours at room temperature with rotation. Three five-minute washes with 0.5% BSA in 1×PBST (PBS+0.05% Tween-20) followed by three five-minute washes with 0.5% BSA in 1×PBS were utilized to remove any unbound phage to the peptide-HLA complex bound beads. To elute the bound phage from the washed beads, 1 ml 0.1M TEA was added and incubated for 10 minutes at room temperature with rotation. The eluted phage was collected from the beads and neutralized with 0.5 ml 1M Tris-HCl pH 7.5. The neutralized phage was then used to infect log growth TG-1 cells (OD₆₀₀=0.5) and after an hour of infection at 37° C., cells were plated onto 2YT media with 100 μg/ml carbenicillin and 2% glucose (2YTCG) agar plates for output titer and bacterial growth for subsequent panning rounds.
96-well and/or 384-well streptavidin coated plates (Pierce) were coated with 2 μg/ml peptide-HLA complex in HLA buffer and incubated overnight at 4° C. Plates were washed three times between each step with PBST (PBS+0.05%). The antigen coated plates were blocked with 3% BSA in PBS (blocking buffer) for 1 hour at room temperature. After washing, scFv PPEs were added to the plates and incubated at room temperature for 1 hour. Following washing, mouse anti-v5 antibody (Invitrogen) in blocking buffer was added to detect scFv and incubated at room temperature for 1 hour. After washing, HRP-goat anti-mouse antibody (Jackson ImmunoResearch) was added and incubated at room temperature for 1 hour.

B1: 4-G2(1H11)-10AAL hOKT3a (bispecific antibody)
chain: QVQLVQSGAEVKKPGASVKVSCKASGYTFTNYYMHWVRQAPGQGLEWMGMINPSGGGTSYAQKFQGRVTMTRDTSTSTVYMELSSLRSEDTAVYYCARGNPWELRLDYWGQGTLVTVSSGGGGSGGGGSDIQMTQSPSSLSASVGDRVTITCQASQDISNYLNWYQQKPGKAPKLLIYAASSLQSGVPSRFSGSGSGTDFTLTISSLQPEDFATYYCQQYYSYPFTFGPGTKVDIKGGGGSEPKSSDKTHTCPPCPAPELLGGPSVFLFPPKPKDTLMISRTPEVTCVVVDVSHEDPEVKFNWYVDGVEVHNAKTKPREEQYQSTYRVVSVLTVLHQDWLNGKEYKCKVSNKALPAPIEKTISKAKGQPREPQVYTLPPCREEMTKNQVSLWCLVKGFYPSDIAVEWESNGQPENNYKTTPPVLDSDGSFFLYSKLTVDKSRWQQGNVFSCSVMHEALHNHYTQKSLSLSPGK
heavy: QVQLVQSGAEVKKPGASVKVSCKASGYTFTNYYMHWVRQAPGQGLEWMGMINPSGGGTSYAQKFQGRVTMTRDTSTSTVYMELSSLRSEDTAVYYCARGNPWELRLDYWGQGTLVTVSSGGGGSGGGGSDIQMTQSPSSLSASVGDRVTITCQASQDISNYLNWYQQKPGKAPKLLIYAASSLQSGVPSRFSGSGSGTDFTLTISSLQPEDFATYYCQQYYSYPFTFGPGTKVDIKGGGGSGGGGSQVQLVQSGAEVKKPGASVKVSCKASGYTFTRYTMHWVRQAPGQGLEWMGYINPSRGYTNYNQKFKDRVTLTTDKSSSTAYMELSSLRSEDTAVYYCARYYDDHYSLDYWGQGTLVTVSSASTKGPSVFPLAPSSKSTSGGTAALGCLVKDYFPEPVTVSWNSGALTSGVHTFPAVLQSSGLYSLSSVVTVPSSSLGTQTYICNVNHKPSNTKVDKRVEPKSCDKTHTCPPCPAPELLGGPSVFLFPPKPKDTLMISRTPEVTCVVVDVSHEDPEVKFNWYVDGVEVHNAKTKPREEQYQSTYRVVSVLTVLHQDWLNGKEYKCKVSNKALPAPIEKTISKAKGQPREPQVCTLPPSREEMTKNQVSLSCAVKGFYPSDIAVEWESNGQPENNYKTTPPVLDSDGSFFLVSKLTVDKSRWQQGNVFSCSVMHEALHNRFTQKSLSLSPGK
light: DIQMTQSPSSLSASVGDRVTITCSASSSVSYMNWYQQKPGKAPKRLIYDTSKLASGVPSRFSGSGSGTDFTLTISSLQPEDFATYYCQQWSSNPFTFGQGTKLEIKRTVAAPSVFIFPPSDEQLKSGTASVVCLLNNFYPREAKVQWKVDNALQSGNSQESVTEQDSKDSTYSLSSTLTLSKADYEKHKVYACEVTHQGLSSPVTKSFNRGEC
notes: format 4 diabody; also called G2(1H11)-hOKT3a Format 4 with shortened linkers; DAB
In the case of B1, the Kd [1] is reported as 6.35 nM, the koff [1] is reported as 0.00608 s⁻¹ and the kon [1] is reported as 958000 M⁻¹ s⁻¹. The Kd [2] was 301 nM, the koff [2] was 0.0746 s⁻¹ and the kon [2] was 248000 M⁻¹ s⁻¹.

B2: 4-hOKT3-G2(1H11) (bispecific antibody, human IgG1, kappa, N297Q)
chain: not shown
heavy: QVQLVQSGAEVKKPGASVKVSCKASGYTFTNYYMHWVRQAPGQGLEWMGMINPSGGGTSYAQKFQGRVTMTRDTSTSTVYMELSSLRSEDTAVYYCARGNPWELRLDYWGQGTLVTVSSGGGGSGGGGSGGGGSGGGGSDIQMTQSPSSLSASVGDRVTITCQASQDISNYLNWYQQKPGKAPKLLIYAASSLQSGVPSRFSGSGSGTDFTLTISSLQPEDFATYYCQQYYSYPFTFGPGTKVDIKGGGGSGGGGSQVQLVQSGAEVKKPGASVKVSCKASGYTFTRYTMHWVRQAPGQGLEWMGYINPSRGYTNYNQKFKDRVTLTTDKSSSTAYMELSSLRSEDTAVYYCARYYDDHYSLDYWGQGTLVTVSSASTKGPSVFPLAPSSKSTSGGTAALGCLVKDYFPEPVTVSWNSGALTSGVHTFPAVLQSSGLYSLSSVVTVPSSSLGTQTYICNVNHKPSNTKVDKRVEPKSCDKTHTCPPCPAPELLGGPSVFLFPPKPKDTLMISRTPEVTCVVVDVSHEDPEVKFNWYVDGVEVHNAKTKPREEQYQSTYRVVSVLTVLHQDWLNGKEYKCKVSNKALPAPIEKTISKAKGQPREPQVCTLPPSREEMTKNQVSLSCAVKGFYPSDIAVEWESNGQPENNYKTTPPVLDSDGSFFLVSKLTVDKSRWQQGNVFSCSVMHEALHNRFTQKSLSLSPGK
light: B1 light
notes: format 4; its Fc may differ; also called 4-G2(1H11)-hOKT3; Format 4 G2(1H11) without the DSB
For B2, the EC50 [3] was 9.8 nM, the Kd [4] was 18 nM and the Kd [1] was 30.3 nM. For the same binder, the koff [1] was 0.0277 s⁻¹, the kon [1] was 913000 M⁻¹ s⁻¹ and the Kd [2] was 1640 nM. For the same binder, the koff [2] was 0.324 s⁻¹, the kon [2] was 198000 M⁻¹ s⁻¹ and the koff [5] was 0.00397 s⁻¹.

B3: 4-hOKT3-G2(1H11) with engineered H44/L100 disulfide bond (bispecific antibody, human IgG1, kappa, N297Q)
chain: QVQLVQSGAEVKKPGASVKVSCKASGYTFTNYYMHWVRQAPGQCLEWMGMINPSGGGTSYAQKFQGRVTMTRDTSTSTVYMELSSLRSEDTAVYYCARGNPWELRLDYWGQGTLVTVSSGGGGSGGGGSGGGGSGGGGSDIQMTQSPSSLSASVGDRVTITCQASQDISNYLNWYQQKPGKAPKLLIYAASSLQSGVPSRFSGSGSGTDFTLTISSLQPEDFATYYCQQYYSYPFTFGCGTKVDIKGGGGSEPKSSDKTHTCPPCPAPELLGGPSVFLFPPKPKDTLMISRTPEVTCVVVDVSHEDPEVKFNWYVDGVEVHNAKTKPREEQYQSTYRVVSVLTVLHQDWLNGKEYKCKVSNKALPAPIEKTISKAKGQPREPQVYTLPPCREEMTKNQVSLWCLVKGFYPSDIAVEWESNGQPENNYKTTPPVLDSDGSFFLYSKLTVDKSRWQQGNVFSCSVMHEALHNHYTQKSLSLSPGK
heavy: B2 heavy with G44C, P239C
light: B1 light
notes: also called G2(1H11)-hOKT3_DSBH44/L100 Format 4; G2 Format 4 with the DSB
In the case of B3, the EC50 [3] is reported as 1750 nM, the Kd [4] is reported as 35.1 nM and the koff [5] is reported as 0.025 s⁻¹.

B4: 4-G5(1C12)_10AAL hOKT3a (bispecific antibody)
chain: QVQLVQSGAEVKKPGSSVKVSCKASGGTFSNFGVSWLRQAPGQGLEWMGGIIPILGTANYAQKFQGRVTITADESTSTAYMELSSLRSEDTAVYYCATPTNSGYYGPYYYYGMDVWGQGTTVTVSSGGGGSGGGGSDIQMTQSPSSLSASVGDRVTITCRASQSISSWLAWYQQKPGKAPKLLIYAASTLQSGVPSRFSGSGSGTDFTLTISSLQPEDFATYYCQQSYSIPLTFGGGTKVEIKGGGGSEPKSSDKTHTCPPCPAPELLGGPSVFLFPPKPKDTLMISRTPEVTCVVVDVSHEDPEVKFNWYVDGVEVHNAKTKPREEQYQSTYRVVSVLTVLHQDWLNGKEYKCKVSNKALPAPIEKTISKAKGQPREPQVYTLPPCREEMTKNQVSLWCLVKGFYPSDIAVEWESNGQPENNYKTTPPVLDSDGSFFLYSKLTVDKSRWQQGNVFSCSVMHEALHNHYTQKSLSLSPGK
heavy: QVQLVQSGAEVKKPGSSVKVSCKASGGTFSNFGVSWLRQAPGQGLEWMGGIIPILGTANYAQKFQGRVTITADESTSTAYMELSSLRSEDTAVYYCATPTNSGYYGPYYYYGMDVWGQGTTVTVSSGGGGSGGGGSDIQMTQSPSSLSASVGDRVTITCRASQSISSWLAWYQQKPGKAPKLLIYAASTLQSGVPSRFSGSGSGTDFTLTISSLQPEDFATYYCQQSYSIPLTFGGGTKVEIKGGGGSGGGGSQVQLVQSGAEVKKPGASVKVSCKASGYTFTRYTMHWVRQAPGQGLEWMGYINPSRGYTNYNQKFKDRVTLTTDKSSSTAYMELSSLRSEDTAVYYCARYYDDHYSLDYWGQGTLVTVSSASTKGPSVFPLAPSSKSTSGGTAALGCLVKDYFPEPVTVSWNSGALTSGVHTFPAVLQSSGLYSLSSVVTVPSSSLGTQTYICNVNHKPSNTKVDKRVEPKSCDKTHTCPPCPAPELLGGPSVFLFPPKPKDTLMISRTPEVTCVVVDVSHEDPEVKFNWYVDGVEVHNAKTKPREEQYQSTYRVVSVLTVLHQDWLNGKEYKCKVSNKALPAPIEKTISKAKGQPREPQVCTLPPSREEMTKNQVSLSCAVKGFYPSDIAVEWESNGQPENNYKTTPPVLDSDGSFFLVSKLTVDKSRWQQGNVFSCSVMHEALHNRFTQKSLSLSPGK
light: B1 light
notes: format 4 diabody; also called G5(1C12)-hOKT3a Format 4 with shortened linkers
For B4, the “EC50 (read off the curve)” value [6] was ~1 nM, the Kd [7] was 2.2 nM and the koff [7] was 0.00279 s⁻¹. For the same binder, the kon [7] was 1.27e+06 M⁻¹ s⁻¹, the Kd [8] was 16.1 nM and the koff [8] was 0.00652 s⁻¹. For the same binder, the kon [8] was 405000 M⁻¹ s⁻¹.

B5: G10(4E07) Fab (Fab, V domains shown)
VH: QVQLVQSGAEVKKPGSSVKVSCKASGYTFTGYYMHWVRQAPGQGLEWMGRISPSDGSTTYAPKFQGRVTITADESTSTAYMELSSLRSEDTAVYYCARDMGDAFDIWGQGTTVTVSS
VL: not shown
notes: Fab
Work on B5 yielded a Kd [9] of 428 nM, a koff [9] of 0.111 s⁻¹ and a kon [9] of 477000 M⁻¹ s⁻¹.

B6: G7(1C06) scFv (scFv, V domains shown)
VH: QVQLVQSGAEVKKPGASVKVSCKASGGTFSNYGISWVRQAPGQGLEWMGIINPGGSTSYAQKFQGRVTMTRDTSTSTVYMELSSLRSEDTAVYYCARDGYDFWSGYTSDDYWGQGTLVTVSS
VL: EIVMTQSPATLSVSPGERATLSCRASQSVSSSNLAWYQQKPGQAPRLLIYGASTRATGIPARFSGSGSGTEFTLTISSLQSEDFAVYYCHHYGRSHTFGQGTKVEIK
B6: binds [10].

B7: G7(1G10) scFv (scFv, V domains shown)
VH: EVQLLESGGGLVQPGGSLRLSCAASGFTFSSYAMHWVRQAPGKGLEWVSGISGSGGSTYYADSVKGRFTISRDNSKNTLYLQMNSLRAEDTAVYYCASDYGDYRGQGTLVTVSS
VL: DIQMTQSPSSLSASVGDRVTITCRASQDIRNDLGWYQQKPGKAPKLLIYAASSLQSGVPSRFSGSGSGTDFTLTISSLQPEDFATYYCQQANAFPPTFGQGTKVEIK
B7: binds [10].

B8: G7(1B04) scFv (scFv, V domains shown)
VH: QVQLVQSGAEVKKPGASVKVSCKASGYTFSNYYIHWVRQAPGQGLEWMGWLNPNSGNTGYAQRFQGRVTMTRDTSTSTVYMELSSLRSEDTAVYYCARDLMTTVVTPGDYGMDVWGQGTTVTVSS
VL: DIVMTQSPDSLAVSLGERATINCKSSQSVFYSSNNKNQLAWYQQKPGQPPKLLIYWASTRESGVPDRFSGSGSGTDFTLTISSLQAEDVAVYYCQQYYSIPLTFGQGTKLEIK
B8: binds [10].

B9: G7(1F08) scFv (scFv, V domains shown)
VH: EVQLLQSGGGLVQPGGSLRLSCAASGFTFSSSWMHWVRQAPGKGLEWVSFISTSSGYIYYADSVKGRFTISRDNSKNTLYLQMNSLRAEDTAVYYCAKDLATVGEPYYYYGMDVWGQGTTVTVSS
VL: B7 VL with R24Q, R30S, D32Y, G34N, A50S, S53N, Q55R, A91G, A93T, P96L
B9: binds [10].

B10: G7(3A09) scFv (scFv, V domains shown)
VH: QVQLVQSGAEVKKPGSSVKVSCKASGDTFNTYALSWVRQAPGQGLEWMGWMNPNSGNAGYAQKFQGRVTITADESTSTAYMELSSLRSEDTAVYYCARLWFGELHYYYYYGMDVWGQGTMVTVSS
VL: not shown
B10: binds [10].

B11: G10(1B07) Fab (Fab, V domains shown)
VH: QVQLVQSGAEVKKPGASVKVSCKASGYTFTSYYMHWVRQAPGQGLEWMGIIHPGGGTTSYAQKFQGRVTMTRDTSTSTVYMELSSLRSEDTAVYYCARDKVYGDGFDPWGQGTLVTVSS
VL: B7 VL with D28S, R30S, N31R, D32W, G34A, Y49F, A50D, S53R, N92E, P96Y
notes: Fab
B11 gave a Kd [9] of 37.5 nM, a koff [9] of 0.00615 s⁻¹ and a kon [9] of 165000 M⁻¹ s⁻¹.
